{"source": "IntAct's records for PubMed 29039417", "parents": {"B1": {"name": "Protein PTHB1 (Homo sapiens), Q3SYG4 (parent)", "chain": "MSLFKARDWWSTILGDKEEFDQGCLCLANVDNSGNGQDKIIVGSFMGYLRIFSPHPAKTGDGAQAEDLLLEVDLRDPVLQVEVGKFVSGTEMLHLAVLHSRKLCVYSVSGTLGNVEHGNQCQMKLMYEHNLQRTACNMTYGSFGGVKGRDLICIQSMDGMLMVFEQESYAFGRFLPGFLLPGPLAYSSRTDSFLTVSSCQQVESYKYQVLAFATDADKRQETEQQKLGSGKRLVVDWTLNIGEQALDICIVSFNQSASSVFVLGERNFFCLKDNGQIRFMKKLDWSPSCFLPYCSVSEGTINTLIGNHNNMLHIYQDVTLKWATQLPHIPVAVRVGCLHDLKGVIVTLSDDGHLQCSYLGTDPSLFQAPNVQSRELNYDELDVEMKELQKIIKDVNKSQGVWPMTEREDDLNVSVVVSPNFDSVSQATDVEVGTDLVPSVTVKVTLQNRVILQKAKLSVYVQPPLELTCDQFTFEFMTPDLTRTVSFSVYLKRSYTPSELEGNAVVSYSRPTDRNPDGIPRVIQCKFRLPLKLICLPGQPSKTASHKITIDTNKSPVSLLSLFPGFASQSDDDQVNVMGFHFLGGARITVLASKTSQRYRIQSEQFEDLWLITNELILRLQEYFEKQGVKDFACSFSGSIPLQEYFELIDHHFELRINGEKLEELLSERAVQFRAIQRRLLARFKDKTPAPLQHLDTLLDGTYKQVIALADAVEENQGNLFQSFTRLKSATHLVILLIALWQKLSADQVAILEAAFLPLQEDTQELGWEETVDAAISHLLKTCLSKSSKEQALNLNSQLNIPKDTSQLKKHITLLCDRLSKGGRLCLSTDAAAPQTMVMPGGCTTIPESDLEERSVEQDSTELFTNHRHLTAETPRPEVSPLQGVSE", "partner": "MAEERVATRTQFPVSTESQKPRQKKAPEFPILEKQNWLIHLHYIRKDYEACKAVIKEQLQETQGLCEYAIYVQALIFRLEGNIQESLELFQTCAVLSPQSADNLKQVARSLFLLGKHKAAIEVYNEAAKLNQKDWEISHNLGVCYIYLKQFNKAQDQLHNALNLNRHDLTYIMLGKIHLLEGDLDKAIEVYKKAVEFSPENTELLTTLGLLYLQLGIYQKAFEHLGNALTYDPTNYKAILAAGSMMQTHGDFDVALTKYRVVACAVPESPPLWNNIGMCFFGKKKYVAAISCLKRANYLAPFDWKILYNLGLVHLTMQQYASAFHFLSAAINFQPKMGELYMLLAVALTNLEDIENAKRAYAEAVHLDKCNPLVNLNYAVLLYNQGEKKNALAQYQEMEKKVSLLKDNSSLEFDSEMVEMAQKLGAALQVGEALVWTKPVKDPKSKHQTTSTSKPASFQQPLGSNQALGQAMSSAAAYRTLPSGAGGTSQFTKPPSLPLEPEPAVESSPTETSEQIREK"}}}
{"variants_of": "B1", "details": "with bbs4_human BBS4, Q96RK4"}
{"variant": "V838E", "effect of a mutation on the interaction": "disrupting interaction strength"}
{"variant": "V838K", "effect of a mutation on the interaction": "disrupting interaction strength"}
{"variant": "M839A", "effect of a mutation on the interaction": "disrupting interaction strength"}
{"variant": "M839E", "effect of a mutation on the interaction": "disrupting interaction strength"}
{"variant": "M839K", "effect of a mutation on the interaction": "with no effect"}
{"variant": "P840A", "effect of a mutation on the interaction": "disrupting interaction strength"}
{"variant": "P840E", "effect of a mutation on the interaction": "with no effect"}
{"variant": "P840K", "effect of a mutation on the interaction": "with no effect"}
{"variant": "P840S", "effect of a mutation on the interaction": "disrupting interaction strength"}
{"variant": "G841A", "effect of a mutation on the interaction": "with no effect"}
{"variant": "G841E", "effect of a mutation on the interaction": "with no effect"}
{"variant": "G841K", "effect of a mutation on the interaction": "with no effect"}
{"variant": "G842A", "effect of a mutation on the interaction": "with no effect"}
{"variant": "G842E", "effect of a mutation on the interaction": "with no effect"}
{"variant": "G842K", "effect of a mutation on the interaction": "with no effect"}
{"variant": "C843A", "effect of a mutation on the interaction": "with no effect"}
{"variant": "C843E", "effect of a mutation on the interaction": "with no effect"}
{"variant": "C843K", "effect of a mutation on the interaction": "with no effect"}
{"variant": "T844A", "effect of a mutation on the interaction": "with no effect"}
{"variant": "T844E", "effect of a mutation on the interaction": "with no effect"}
{"variant": "T844K", "effect of a mutation on the interaction": "with no effect"}
{"variant": "T845A", "effect of a mutation on the interaction": "with no effect"}
{"variant": "T845E", "effect of a mutation on the interaction": "with no effect"}
{"variant": "T845K", "effect of a mutation on the interaction": "with no effect"}
{"variant": "I846A", "effect of a mutation on the interaction": "with no effect"}
{"variant": "I846E", "effect of a mutation on the interaction": "with no effect"}
{"variant": "I846K", "effect of a mutation on the interaction": "with no effect"}
{"variant": "P847A", "effect of a mutation on the interaction": "with no effect"}
{"variant": "P847E", "effect of a mutation on the interaction": "with no effect"}
{"variant": "P847K", "effect of a mutation on the interaction": "with no effect"}
{"variant": "E848A", "effect of a mutation on the interaction": "with no effect"}
{"variant": "E848K", "effect of a mutation on the interaction": "with no effect"}
{"variant": "S849A", "effect of a mutation on the interaction": "with no effect"}
{"variant": "S849E", "effect of a mutation on the interaction": "with no effect"}
{"variant": "S849K", "effect of a mutation on the interaction": "with no effect"}
{"variant": "D850A", "effect of a mutation on the interaction": "with no effect"}
{"variant": "D850E", "effect of a mutation on the interaction": "with no effect"}
{"variant": "D850K", "effect of a mutation on the interaction": "with no effect"}
{"variant": "L851A", "effect of a mutation on the interaction": "with no effect"}
{"variant": "L851E", "effect of a mutation on the interaction": "with no effect"}
{"variant": "L851K", "effect of a mutation on the interaction": "with no effect"}
{"variant": "E852A", "effect of a mutation on the interaction": "with no effect"}
{"variant": "E852K", "effect of a mutation on the interaction": "with no effect"}
{"variant": "E853A", "effect of a mutation on the interaction": "with no effect"}
{"variant": "E853K", "effect of a mutation on the interaction": "with no effect"}
{"variant": "R854A", "effect of a mutation on the interaction": "with no effect"}
{"variant": "R854E", "effect of a mutation on the interaction": "with no effect"}
{"variant": "R854K", "effect of a mutation on the interaction": "with no effect"}
{"variant": "S855A", "effect of a mutation on the interaction": "with no effect"}
{"variant": "S855E", "effect of a mutation on the interaction": "with no effect"}
{"variant": "S855K", "effect of a mutation on the interaction": "with no effect"}
{"variant": "V856A", "effect of a mutation on the interaction": "with no effect"}
{"variant": "V856E", "effect of a mutation on the interaction": "with no effect"}
{"variant": "V856K", "effect of a mutation on the interaction": "with no effect"}
{"variant": "E857A", "effect of a mutation on the interaction": "with no effect"}
{"variant": "E857K", "effect of a mutation on the interaction": "with no effect"}
{"variant": "Q858A", "effect of a mutation on the interaction": "with no effect"}
{"variant": "Q858E", "effect of a mutation on the interaction": "with no effect"}
{"variant": "Q858K", "effect of a mutation on the interaction": "with no effect"}
{"variant": "D859A", "effect of a mutation on the interaction": "with no effect"}
{"variant": "D859E", "effect of a mutation on the interaction": "with no effect"}
{"variant": "D859K", "effect of a mutation on the interaction": "with no effect"}
{"variant": "S860A", "effect of a mutation on the interaction": "with no effect"}
{"variant": "S860E", "effect of a mutation on the interaction": "with no effect"}
{"variant": "S860K", "effect of a mutation on the interaction": "with no effect"}
{"variant": "T861A", "effect of a mutation on the interaction": "with no effect"}
{"variant": "T861E", "effect of a mutation on the interaction": "with no effect"}
{"variant": "T861K", "effect of a mutation on the interaction": "with no effect"}
{"variant": "E862A", "effect of a mutation on the interaction": "with no effect"}
{"variant": "E862K", "effect of a mutation on the interaction": "with no effect"}
{"variant": "L863A", "effect of a mutation on the interaction": "with no effect"}
{"variant": "L863E", "effect of a mutation on the interaction": "with no effect"}
{"variant": "L863K", "effect of a mutation on the interaction": "with no effect"}
{"variant": "F864A", "effect of a mutation on the interaction": "with no effect"}
{"variant": "F864E", "effect of a mutation on the interaction": "with no effect"}
{"variant": "F864K", "effect of a mutation on the interaction": "with no effect"}
{"variant": "T865A", "effect of a mutation on the interaction": "with no effect"}
{"variant": "T865E", "effect of a mutation on the interaction": "with no effect"}
{"variant": "T865K", "effect of a mutation on the interaction": "with no effect"}
{"variant": "N866A", "effect of a mutation on the interaction": "with no effect"}
{"variant": "N866E", "effect of a mutation on the interaction": "with no effect"}
{"variant": "N866K", "effect of a mutation on the interaction": "with no effect"}
{"variant": "H867A", "effect of a mutation on the interaction": "with no effect"}
{"variant": "H867E", "effect of a mutation on the interaction": "with no effect"}
{"variant": "H867K", "effect of a mutation on the interaction": "with no effect"}
{"variant": "R868A", "effect of a mutation on the interaction": "with no effect"}
{"variant": "R868E", "effect of a mutation on the interaction": "with no effect"}
{"variant": "R868K", "effect of a mutation on the interaction": "with no effect"}
{"variant": "H869A", "effect of a mutation on the interaction": "with no effect"}
{"variant": "H869E", "effect of a mutation on the interaction": "with no effect"}
{"variant": "H869K", "effect of a mutation on the interaction": "with no effect"}
